Measured values published in article PMC8962522, “Direct interaction of TrkA/CD44v3 is essential for NGF-promoted aggressiveness of breast cancer cells” (Journal of Experimental & Clinical Cancer Research : CR, 2022).

Target: T1, TrkA-His tagged extracellular domain protein (Ala 34-Gly423) (UniProt P04629 34-423, RED-Tris-NTA dye on the His tag (Monolith His-Tag Labeling Kit))
T1 construct: TrkA (tropomyosin kinase A) extracellular domain, Ala34-Gly423; The TrkA used for nanoDSF is not described; source: bought: R&D Systems (9966-TK-050)
T1 sequence (P04629 34-423): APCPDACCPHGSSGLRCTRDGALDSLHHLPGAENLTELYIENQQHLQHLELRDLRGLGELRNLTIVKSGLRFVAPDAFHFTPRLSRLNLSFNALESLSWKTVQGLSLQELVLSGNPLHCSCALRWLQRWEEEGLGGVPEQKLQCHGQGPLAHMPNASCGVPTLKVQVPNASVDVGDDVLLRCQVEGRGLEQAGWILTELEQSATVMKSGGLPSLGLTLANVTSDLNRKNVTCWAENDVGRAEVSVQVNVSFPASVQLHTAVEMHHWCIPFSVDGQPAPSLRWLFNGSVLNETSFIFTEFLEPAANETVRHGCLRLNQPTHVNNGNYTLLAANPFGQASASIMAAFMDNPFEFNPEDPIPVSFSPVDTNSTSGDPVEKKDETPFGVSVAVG
Assay: MST; binding check: peptides and TrkA-His labelled with RED-Tris-NTA; PBS-T; high MST power, 100% LED
Details: both partners purified

B1: CD44v3 mimetic peptide 4 (peptide)
peptide: IDDDEDFISST
notes: zone 4, the C-terminal region of CD44 variant exon v3; numbers count on: exon v3 (D34, F38 as printed); also called P4; CD44v3 C-terminal-mimicking peptide; source: synthetic peptide
B1: binds.

B2: CD44v3 mimetic peptide 3 (peptide)
peptide: RDRHLSFSGSG
notes: zone 3 of CD44 variant exon v3; not glycosylated; numbers count on: exon v3; also called P3; source: synthetic peptide
B2: binds.
